According to patent publication US20250034266A1:
Residue numbers refer to the chain shown, from its start. Read-outs that look alike come from different tables or passages of the source.

Assays:
[1] = molecular target: human CCR8 (human) (UniProt P51685); test: cell-based or functional assay
[2] = molecular target: cynomolgus CCR8 (cynomolgus) (UniProt G7NYJ2); test: FACS on HEK293-cynomolgus CCR8 cells
[3] = molecular target: cynomolgus CCR8 (cynomolgus) (UniProt G7NYJ2); test: FACS on HEK293-cynomolgus CCR8 cells; remark: listed apart in the source
[4] = molecular target: cynomolgus CCR8 (cynomolgus) (UniProt G7NYJ2); test: FACS on HEK293-cynomolgus CCR8 cells; remark: listed apart in the source
[5] = molecular target: human CCR8 (human) (UniProt P51685); test: FACS, competition with AF647-human CCL1 on CHO-K1-human CCR8 cells
[6] = molecular target: human CCR8 (human) (UniProt P51685); test: FACS, competition with AF647-human CCL1 on HEK293-human CCR8 cells
[7] = molecular target: human CCR8 (human) (UniProt P51685); test: FACS on HuT78 cells (endogenous human CCR8)
[8] = molecular target: cynomolgus CCR8 (cynomolgus) (UniProt G7NYJ2); test: FACS on HEK293-cynomolgus CCR8 cells; remark: listed apart in the source
[9] = molecular target: human CCR8 (human) (UniProt P51685); test: FACS, competition with CCL1 on CHO-K1-human CCR8 cells
[10] = molecular target: human CCR8 (human) (UniProt P51685); test: FACS on CHO-K1-human CCR8 cells
[11] = molecular target: human CCR8 (human) (UniProt P51685); test: FACS, competition with AF647-human CCL1 on CHO-K1-human CCR8 cells; remark: listed apart in the source
[12] = molecular target: cynomolgus CCR8 (cynomolgus) (UniProt G7NYJ2); test: FACS on cynomolgus CCR8 cells
[13] = molecular target: human CCR8 (human) (UniProt P51685); test: cell-based or functional assay; remark: listed apart in the source
[14] = molecular target: human CCR8 (human) (UniProt P51685); test: FACS competition with 4 nM AF647-human CCL1 on human CCR8 cells
[15] = molecular target: human CCR8 (human) (UniProt P51685); test: FACS on HEK293-human CCR8 cells
[16] = molecular target: T1, human CCR4 (human) (UniProt P51679); test: FACS on ExpiCHO-S-human CCR4 cells
T1 sequence (looked up): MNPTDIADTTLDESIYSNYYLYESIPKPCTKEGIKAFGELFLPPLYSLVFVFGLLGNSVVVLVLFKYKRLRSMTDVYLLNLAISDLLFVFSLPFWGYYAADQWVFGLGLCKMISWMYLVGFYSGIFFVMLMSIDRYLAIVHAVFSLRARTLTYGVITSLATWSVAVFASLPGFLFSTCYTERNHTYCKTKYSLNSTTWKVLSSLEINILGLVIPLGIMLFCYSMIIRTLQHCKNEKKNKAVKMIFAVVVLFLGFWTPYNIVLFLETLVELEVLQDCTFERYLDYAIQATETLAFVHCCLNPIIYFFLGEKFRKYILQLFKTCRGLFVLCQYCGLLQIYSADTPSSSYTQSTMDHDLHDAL

[17] = molecular target: human CCR8 (human) (UniProt P51685); test: FACS on HEK293-human CCR8 cells; remark: listed apart in the source
[18] = molecular target: human CCR8 (human) (UniProt P51685); test: FACS, competition with AF647-human CCL1 on CHO-K1-human CCR8 cells; remark: listed apart in the source
[19] = molecular target: cynomolgus CCR8 (cynomolgus) (UniProt G7NYJ2); test: FACS on HEK293-cynomolgus CCR8 cells; remark: listed apart in the source
[20] = molecular target: human CCR8 (human) (UniProt P51685); test: FACS on CHO-K1-human CCR8 cells; remark: listed apart in the source
[21] = molecular target: human CCR8 (human) (UniProt P51685); test: FACS, competition with AF647-human CCL1 on CHO-K1-human CCR8 cells; remark: listed apart in the source
[22] = molecular target: human CCR8 (human) (UniProt P51685); test: cell-based or functional assay; remark: listed apart in the source
[23] = molecular target: human CCR8 tagged with ProLink (PK) (human) (UniProt P51685); test: cell-based or functional assay
Sequence of human CCR8 tagged with ProLink (PK) (human) (P51685 whole entry): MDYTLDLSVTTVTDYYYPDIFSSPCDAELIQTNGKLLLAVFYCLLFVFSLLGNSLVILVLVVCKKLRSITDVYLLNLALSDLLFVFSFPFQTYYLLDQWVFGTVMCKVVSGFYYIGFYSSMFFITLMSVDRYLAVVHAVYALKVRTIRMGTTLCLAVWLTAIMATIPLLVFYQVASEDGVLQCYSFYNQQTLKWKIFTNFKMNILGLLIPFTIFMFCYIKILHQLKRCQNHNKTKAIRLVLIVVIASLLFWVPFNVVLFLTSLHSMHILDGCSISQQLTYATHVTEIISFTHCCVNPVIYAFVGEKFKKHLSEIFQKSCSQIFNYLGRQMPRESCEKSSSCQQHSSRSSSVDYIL

[24] = molecular target: human CCR8 (human) (UniProt P51685); test: FACS on HEK293-human CCR8 cells; remark: listed apart in the source
[25] = molecular target: human CCR8 (human) (UniProt P51685); test: FACS on CHO-K1-human CCR8 cells; remark: listed apart in the source
[26] = molecular target: T2, human CCR1 (human) (UniProt P32246); test: FACS on ExpiCHO-S-human CCR1 cells
T2 sequence (looked up): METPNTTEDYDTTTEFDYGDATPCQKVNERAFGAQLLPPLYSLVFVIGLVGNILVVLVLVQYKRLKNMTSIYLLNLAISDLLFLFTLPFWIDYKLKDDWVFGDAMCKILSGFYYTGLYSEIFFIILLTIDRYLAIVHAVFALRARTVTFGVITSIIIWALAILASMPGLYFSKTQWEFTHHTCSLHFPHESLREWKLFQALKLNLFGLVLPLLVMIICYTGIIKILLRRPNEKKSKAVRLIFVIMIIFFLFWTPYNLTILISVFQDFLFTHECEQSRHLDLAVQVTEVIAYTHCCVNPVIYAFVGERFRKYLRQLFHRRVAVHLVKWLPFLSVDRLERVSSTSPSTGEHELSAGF

[27] = molecular target: human CCR8 (human) (UniProt P51685); test: FACS on HuT78 cells (endogenous human CCR8); remark: listed apart in the source
[28] = molecular target: human CCR8 (human) (UniProt P51685); test: FACS on HEK293-human CCR8 cells; remark: listed apart in the source
[29] = molecular target: human CCR8 (human) (UniProt P51685); test: FACS, competition with CCL1 on CHO-K1-human CCR8 cells; remark: listed apart in the source
[30] = molecular target: cynomolgus CCR8 (cynomolgus) (UniProt G7NYJ2); test: FACS on HEK293-Cynomolgus CCR8 cells
[31] = molecular target: human CCR8 (human) (UniProt P51685); test: FACS, competition with AF647-human CCL1 on CHO-K1-human CCR8 cells; remark: listed apart in the source
[32] = molecular target: human CCR8 (human) (UniProt P51685); test: FACS on HEK293-human CCR8 cells; remark: listed apart in the source
[33] = molecular target: cynomolgus CCR8 (cynomolgus) (UniProt G7NYJ2); test: FACS on ExpiCHO-S-cynomolgus CCR8 cells

Sequence of human CCR8 (human) (P51685 whole entry): as the sequence (P51685 whole entry) above
Sequence of cynomolgus CCR8 (cynomolgus) (G7NYJ2 entry or part of it): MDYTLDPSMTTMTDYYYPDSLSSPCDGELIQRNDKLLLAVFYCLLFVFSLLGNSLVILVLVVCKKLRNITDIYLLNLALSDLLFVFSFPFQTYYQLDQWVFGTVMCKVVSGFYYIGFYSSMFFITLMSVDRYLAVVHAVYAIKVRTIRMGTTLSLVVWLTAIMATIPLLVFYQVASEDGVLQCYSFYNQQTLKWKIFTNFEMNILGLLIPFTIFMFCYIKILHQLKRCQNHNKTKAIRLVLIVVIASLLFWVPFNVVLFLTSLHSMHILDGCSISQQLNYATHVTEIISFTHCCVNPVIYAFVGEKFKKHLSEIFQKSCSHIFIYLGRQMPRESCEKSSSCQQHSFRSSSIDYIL

B1: Hu149-11G1x (antibody, V domains shown, not shown: a dimerising Fc or GST)
VH: EVQLVESGGGLVQPGGSLKLSCAASGFTFNTYAMNWVRQASGKGLEWVGRIRSKSNFYATAYAASVKGRFTISRDDSKNTAYLQMNSLKTEDTAVYYCTRGREYGSSYAMDYWGQGTLVTVSS
VL: DIVMTQSPLSLPVTPGEPASISCRSSKSLLHSNANTYLYWFLQKPGQSPQLLIYRMSNLASGVPDRFSGSGSGTDFTLKISRVEAEDVGVYYCMQHLEYPLTFGGGTKVELK
[1]
  EC50, ADCC reporter, F variant CD16a/NFAT-Jurkat, target CHO-K1-human CCR8 cells: 0.00351 nM
  EC50, ADCC reporter, F variant CD16a/NFAT-Jurkat, target HuT78 cells: 0.0046 nM
  EC50, ADCC reporter, V variant CD16a/NFAT-Jurkat, target CHO-K1-human CCR8 cells: 0.00487 nM
  EC50, ADCC reporter, V variant CD16a/NFAT-Jurkat, target HuT78 cells: 0.00559 nM
  EC50, ADCC with human PBMCs, target CHO-K1-human CCR8 cells: 0.000384 nM
  Max (RLU), ADCC reporter, F variant CD16a/NFAT-Jurkat, target CHO-K1-human CCR8 cells: 8.34e+06 RLU
  Max (RLU), ADCC reporter, F variant CD16a/NFAT-Jurkat, target HuT78 cells: 1.51e+07 RLU
  Max (RLU), ADCC reporter, V variant CD16a/NFAT-Jurkat, target CHO-K1-human CCR8 cells: 4.09e+06 RLU
  Max (RLU), ADCC reporter, V variant CD16a/NFAT-Jurkat, target HuT78 cells: 9.06e+06 RLU
  Max specific lysis (%), ADCC with human PBMCs, target CHO-K1-human CCR8 cells: 44.2%

B2: 433H monoclonal antibody (BD Biosciences, #644092) (antibody, from another filing, mouse IgG2a, V domains shown)
VH: EVQLVETGGGLVQPKGSLRLSCAASGFPFNTFAMNWVRQAPGKGLEWLARIRSKSNNYATYYADSVKDRFTISRDDSRRMLYLLMNNVKFEDTAIYYCVRGKENNYGYAMDYWGQGTSVTVSS
VL: DIVMTQAAPSVPVTPGESVSISCRSSQSLLHSNGNTYLYWFLQRPGQSPQLLIYRMSNLASGVPDRFSGSGSGTAFTLRISRVEAEDVGVYYCMQHLEYPFTFGIGTKLELKR
[2]
  Max MFI: 2340 MFI
[3]
  Max MFI: 1240 MFI
[4]
  EC50: 9.08 nM
  Max MFI: 802 MFI
[5]
  IC50: 0.171 nM
  Max Inhibition (%): 98.7%
[6]
  IC50: 0.335 nM
  Max Inhibition (%): 98.8%
[7]
  EC50: 0.123 nM
  Max MFI: 60800 MFI
[8]
  EC50: 19.4 nM
  Max MFI: 1.72e+06 MFI
[9]
  IC50: 0.114 nM
  Max Inhibition (%): 100%
[10]
  EC50: 0.0823 nM
  Max MFI: 814000 MFI
[11]
  IC50: 0.243 nM
  Max Inhibition (%): 96%
[12]
  Binding Ratio (GFP + MFI)/(GFP - MFI): 7.9
[13]
  IC50, inhibition of CCL1 induced β-Arrestin recruitment: 0.23 nM
  Max Inhibition (%), CCL1 induced β-Arrestin recruitment: 92.6%
[14]
  Inhibition Rate (%): 100%
[15]
  EC50: 0.215 nM
  Max MFI: 5940 MFI
[16]
  Max MFI: 6.1 MFI
[17]
  EC50: 0.0878 nM
  Max MFI: 3890 MFI
[18]
  IC50: 0.193 nM
  Max Inhibition (%): 99.1%
[19]
  Max MFI: 648000 MFI
[20]
  Binding Ratio (GFP + MFI)/(GFP - MFI): 158
  EC50: 0.124 nM
  Max MFI: 4920 MFI
[21]
  IC50: 0.143 nM
  Max Inhibition (%): 99.8%
[22]
  IC50, inhibition of CCL1 induced β-Arrestin recruitment: 0.89 nM
  Max Inhibition (%), CCL1 induced β-Arrestin recruitment: 92.5%
[1]
  IC50, blocking of CCL1 induced cell migration: 1.25 nM
  IC50, blocking of cell migration induced by CCL1: 0.278 nM
  IC50, inhibition of CCL1 induced β-Arrestin recruitment: 1.06 nM
  Max Inhibition (%), CCL1 induced β-Arrestin recruitment: 89.9%
  Max Inhibition (%), cell migration induced by CCL1: 104%
  Max inhibition (%), CCL1 induced cell migration: 117%
[23]
  IC50, inhibition of CCL1 induced β-Arrestin recruitment, CHO-K1-human CCR8 β-Arrestin cells: 6.54 nM
  Max Inhibition (%), CCL1 induced β-Arrestin recruitment, CHO-K1-human CCR8 β-Arrestin cells: 80.3%
[24]
  EC50: 0.197 nM
  Max MFI: 2780 MFI
[25]
  EC50: 0.0699 nM
  Max MFI: 215000 MFI
[26]
  Max MFI: 133 MFI
[27]
  Max MFI: 31900 MFI
[28]
  EC50: 0.119 nM
  Max MFI: 2810 MFI
[29]
  IC50: 0.178 nM
  Max Inhibition (%): 99.6%
[30]
  Max MFI: 2010 MFI
[31]
  IC50: 0.198 nM
  Max Inhibition (%): 99.6%
[32]
  EC50: 0.117 nM
  Max MFI: 2020 MFI
[33]
  Max MFI: 27 MFI

B3: Hu149-12G1x (antibody, V domains shown, not shown: a dimerising Fc or GST)
VH: B1 VH with R102K
VL: B1 VL
[1]
  EC50, ADCC reporter, F variant CD16a/NFAT-Jurkat, target CHO-K1-human CCR8 cells: 0.00299 nM
  EC50, ADCC reporter, F variant CD16a/NFAT-Jurkat, target HuT78 cells: 0.00428 nM
  EC50, ADCC reporter, V variant CD16a/NFAT-Jurkat, target CHO-K1-human CCR8 cells: 0.00505 nM
  EC50, ADCC reporter, V variant CD16a/NFAT-Jurkat, target HuT78 cells: 0.00458 nM
  EC50, ADCC with human PBMCs, target CHO-K1-human CCR8 cells: 0.000828 nM
  Max (RLU), ADCC reporter, F variant CD16a/NFAT-Jurkat, target CHO-K1-human CCR8 cells: 8.27e+06 RLU
  Max (RLU), ADCC reporter, F variant CD16a/NFAT-Jurkat, target HuT78 cells: 1.56e+07 RLU
  Max (RLU), ADCC reporter, V variant CD16a/NFAT-Jurkat, target CHO-K1-human CCR8 cells: 4.13e+06 RLU
  Max (RLU), ADCC reporter, V variant CD16a/NFAT-Jurkat, target HuT78 cells: 8.88e+06 RLU
  Max specific lysis (%), ADCC with human PBMCs, target CHO-K1-human CCR8 cells: 53%

B4: CCL1 (CN-07, Almac) (ligand, UniProt P22362 24-96, looked up)
chain: KSMQVPFSRCCFSFAEQEIPLRAILCYRNTSSICSNEGLIFKLKRGKEACALDTVGWVQRHRKMLRHCPSKRK
[1]
  β-arrestin recruitment EC50 (CHO-K1 cells co-expressing PK-tagged human CCR8 and EA): 0.288 nM

B5: Hu149-4 (antibody, human IgG1, V domains shown)
VH: B1 VH with A61Y, E103D
VL: B1 VL
[16]
  Max MFI: 44 MFI

B6: Hu149-9 (antibody, human IgG1, V domains shown)
VH: B1 VH with E103D
VL: B1 VL
[16]
  Max MFI: 32.8 MFI
[26]
  Max MFI: 226 MFI
